Laboratory results taken from the supplement of paper PMC12042874.
± gives the uncertainty stated by the source.

Experiment: amyloid nucleation score (Sup35N fusion, yeast selection) (log enrichment); library NNK1; higher = more nucleation; inactive = no reads after selection
Outline: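 Libraries of peptides of 20 random codons fused to Sup35N were expressed in psi-negative yeast and induced 24 hours with 100 μM copper sulfate. Selection was 7 days at 30°C on medium lacking adenine and uracil, and plasmid inserts were Illumina-sequenced before and after selection. Nucleation score is the DiMSum log enrichment of output over input reads, centred on the mode score of non-aggregating sequences, and sequences with under 100 input reads were left out.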

Row | Substance | amyloid nucleation score
1 | NFLMSKTGLTPHR | 0.07 ± 0.51
2 | IVVGRGKQAIASMG | -0.432 ± 0.89
3 | ELKPKAFVVLSDHRHGYKRQ | -0.076 ± 0.97
4 | EELTAYMSLDMQLCRNRAAM | 0.055 ± 0.55
5 | LVFTCVGCWYQGKLWNE | 4.25 ± 0.12
6 | FNFMFAKDGGSDTFLRFDRV | 4.83 ± 0.11
7 | NVSSIFITQY | inactive
8 | LVHRRFMESDISGLCCALLW | -0.224 ± 1.4
9 | LLFSKRVLVSWGFDRGGSEE | 0.336 ± 0.57
10 | TNRVHLWFVL | 7.57 ± 0.078
11 | STTILCLLI | 5.21 ± 0.061
12 | MPIVKLTWLYTGVGAKPQVS | 0.211 ± 0.26
13 | FCNSALLSQLGFLKTWDQRG | -0.604 ± 1.6
14 | QVYEDGRAICHLTLGRDCNL | 2.22 ± 0.47
15 | GAVIVCVYMQALVVIDRASA | -0.62 ± 0.94
16 | VHNNCRWFAGKFPLSRVVLR | 0.553 ± 1.2
17 | HHKPRPNIQFFRYSCKERAS | 0.035 ± 1
18 | LLNLHGSLMYLPSDLLGSHS | 0.156 ± 0.56
19 | ISRSNTLYAIFCARPAKVSL | -0.235 ± 0.6
20 | WGYRHSYSVGPRW | inactive
21 | QTVGKVDVVDCLVLVVRLTI | -0.003 ± 0.57
22 | IFKDLCLTTSGLDIDPNFND | 0.762 ± 0.51
23 | SVYWKYLYP | 1.98 ± 0.098
24 | SCYGEFEPFRESRMGRSNLA | 0.538 ± 0.75
25 | GAFWGFFFKCLSTTLNNSWL | inactive

Row | Substance | amyloid nucleation score
26 | LDVFICTADHTVRYLHHTAV | 1.08 ± 0.66
27 | TSGPN | -0.882 ± 0.6
28 | GVACTARCMCKFNRHPGVCE | -0.274 ± 1.1
29 | FLLLCRSFFSARTILRCTMG | 0.072 ± 0.81
30 | IIFGCCVF | 7.982 ± 0.062
31 | LRREVINWDQRFSFLKSFTW | 2.89 ± 0.15
32 | APVFYIPIMFSQLFGLAQIY | 6.935 ± 0.06
33 | SMTLMWTTPSSYIAWI | -0.792 ± 0.48
34 | DLSFLRNCSLYSLLGVIG | inactive
35 | FMRMFVIIKHHVEVRRPRFI | 0.413 ± 0.7
36 | PHIIFNVVTITYMISALRHV | 3.49 ± 0.09
37 | MLIFNGFTLLVMRVEVAVGS | 0.066 ± 0.64
38 | PIYGFCSIALGSMLIIPRLL | -1.05 ± 0.77
39 | PWDSHSHHSTNRQLRFSSSG | -0.397 ± 0.6
40 | LYHSVSSVEDLQSDACTSCM | 6.728 ± 0.046
41 | EKSCATRLA | 0.374 ± 0.29
42 | DLYGRLLNWNTPYKRRWKNR | -0.491 ± 0.46
43 | WGVFDTETIVWFVYIGTL | -0.026 ± 0.32
44 | RRVLRTSKNSSLMDFYATIE | 0.299 ± 0.79
45 | YIIYWGAQLSILHENSPSFG | 0.354 ± 0.33
46 | HVFCQRGCCERRLKIYISVS | -1.45 ± 0.57
47 | LQTIYFLYE | 2.25 ± 0.13
48 | LCLDKQSSCGSMMSGIYDLM | -0.064 ± 0.28
49 | NSHRNSWSYMRHYSQSLMC | 0.227 ± 0.74
50 | LDTRSRSYVWSDLLRKAKAK | 0.795 ± 0.6

Row | Substance | amyloid nucleation score
51 | GGRLNQHLRSNNTGTHHPGY | -0.533 ± 0.31
52 | FCSSSLFHKVTLG | -0.043 ± 0.77
53 | VKVCHSPKTSYDTVISRGNL | 0.459 ± 0.44
54 | RSLPNPL | -0.29 ± 0.42
55 | FSCGCIRYFSG | -0.115 ± 0.91
56 | NLHNRTCWCMYLFDTSWS | 0 ± 0.29
57 | NSAPDP | -0.948 ± 2.4
58 | CHQAEPGIGMRSCTLVGEGV | 1.36 ± 0.61
59 | FDSLVSREFVP | -0.887 ± 1.5
60 | DSRCHSSSGDRPTLAVYT | -0.198 ± 1.7
61 | ALGVHR | 1.76 ± 0.61
62 | GFVTWPLSRSPGSPGCAALM | 0.015 ± 0.39
63 | GYLSHII | -0.112 ± 0.51
64 | VDISEGCVSPVCFLMPCLMH | -0.238 ± 0.29
65 | LSGPCNFYQHSVSWCLCTYA | 0.764 ± 0.88
66 | TGRSIMPLSYRTYCIDEFVS | 0.004 ± 0.3
67 | TFYVRDRAGCPW | 1.33 ± 0.73
68 | NKMIKWASQDGCRKVRFSEE | -0.427 ± 0.4
69 | EQRVNLISVWIRGDLETPHG | 0.47 ± 0.73
70 | RQPANEELPFSVTGK | -0.892 ± 0.65
71 | FVGSSFGDDFISVSIHSWRP | inactive
72 | HFFDCHNSIEVSLISSCVCV | 3.97 ± 0.065
73 | RHRVQTTPSSMSFV | -0.388 ± 0.96
74 | ECFSKFLNLRGSPLG | -0.098 ± 0.53
75 | TSRIFRCCCNCWSHA | 1.31 ± 0.11

Row | Substance | amyloid nucleation score
76 | PKFSLMQLTPGLGTQ | 3.13 ± 0.13
77 | LRTLPHYNV | 0.596 ± 1.2
78 | NTHILYVWSVMCGHMN | 3.35 ± 0.11
79 | SSSVYVVVEPDMNGLMGMRK | 0.08 ± 0.61
80 | MPVALKIAILTFWEKSNLCE | 1.27 ± 0.88
81 | LSPSCCCFYVLGIVT | 3.57 ± 0.081
82 | HDSSF | -0.038 ± 0.56
83 | VCQLVILGFFLRIVTMCWLW | inactive
84 | SDVLGMSQAIGASTSVAEVV | inactive
85 | VLVLNLSLPKSLSNPSMRFG | 8.028 ± 0.046
86 | EMAELLAMRQLLRTKIH | 0.265 ± 0.34
87 | FHGSGESVNTDTMLTLYISV | -0.157 ± 0.54
88 | VYASLTL | -1.26 ± 1.7
89 | LKYTVPGLISPGFLGVVDYV | -0.624 ± 0.34
90 | PFLAKVLCNVWNI | 6.8 ± 0.047
91 | CKVTSGDIQTYGVLGPQRPA | -1.05 ± 1.1
92 | DPPTL | 0.409 ± 0.42
93 | EVLNIYLHNRLNVLFTELAS | -0.884 ± 1.4
94 | RISLRYGQRC | 0.356 ± 0.28
95 | GVCALAHRAPIWDQFVGMLV | 0.109 ± 0.28
96 | VIGCAGSDLNLRSILCFILC | -0.364 ± 0.28
97 | IRQQKGFGCNAFWMVLG | 0.83 ± 0.78
98 | VRCNGDLQDKYRISFCNKSR | 0.01 ± 1.2
99 | ADRWVLSFMEPCAT | inactive
100 | FIDRIYSIVYGVGGCMMSLI | 0.008 ± 0.47

Row | Substance | amyloid nucleation score
101 | NPTNVSVWGTRGPGCVDYWY | -0.304 ± 0.41
102 | QAKLPLTIDCMKCGTVGTGR | -0.16 ± 0.34
103 | SVVLCMNCGGCLMEIKGGGY | 4.89 ± 0.096
104 | LNSIMQIQVWIFTLEMMSPM | -1.07 ± 0.98
105 | LCWFWGYVISYREMIYAESV | inactive
106 | MFFLQCQMRLSLLVGNVLMR | -0.054 ± 0.56
107 | RVYMFLARFGRESGWSVRQW | 0.169 ± 1
108 | RINQVTGVVQLVFRCRNSRL | 7.643 ± 0.047
109 | PALDAYSQKFELTCCLDTLH | inactive
110 | MSNKTDEDESIYNRVGVIMG | 0.004 ± 0.33
111 | EYLAFDVPNWVGFLGSLWNM | -0.064 ± 0.8
112 | RSVSLNRSTRRRR | 1.1 ± 0.41
113 | PLFVVRIDEISSDSIRGAGH | 1.88 ± 0.53
114 | WVSNL | 0.296 ± 0.44
115 | VFSYGWLYQAPFFRFLHTGF | 0.109 ± 0.74
116 | NSRAGLYVISSSYCRSMLDR | 1.48 ± 0.39
117 | LNRVLMTIWCTPMSICTYDC | 3.89 ± 0.12
118 | TYSLYMCADKFRNTLVNKAV | inactive
119 | SYKGFRSGKVWCFNEASYTS | 1.18 ± 0.45
120 | LPAGSDVCLY | 3.23 ± 0.13
121 | SWTGMNSHSLKKHLGI | -0.447 ± 0.93
122 | LSEKYTIPVLFHVLKIITGI | 0.495 ± 0.45
123 | CGWRSLVVFSFDLDAS | 0.876 ± 0.47
124 | LGTCPYSPPEANN | -0.604 ± 0.5
125 | IFTVSRGPVTLCWDWWETHA | 0.196 ± 0.56

Row | Substance | amyloid nucleation score
126 | SDERKGPGYPSMITSWQGGS | -1.31 ± 2.4
127 | DRRYVKLLRLYCCILECTKV | -0.18 ± 0.38
128 | SSSYVYYEGRFILTFGLF | -0.157 ± 0.47
129 | YENSFGGHYSDESNTRRWEF | 1.44 ± 0.36
130 | IGYLDYLCCGISLFFQETEA | 0.427 ± 0.48
131 | CYKPPLWMMYLLLRRDVYRD | inactive
132 | VSFNTFYRRSFPFQLRTTSV | 0.329 ± 0.29
133 | LDLNRFDPWVVTSLLCFPVA | -1.42 ± 1.5
134 | GTDYIKVSASPRSFMYDSSV | 1.88 ± 0.62
135 | FYFRNSSGF | 2.49 ± 0.58
136 | VDHVGGWVYWYGTRCTFVDG | -0.048 ± 0.27
137 | PTKSIMLFCLGLFCGYLARA | 2.91 ± 0.093
138 | WPWCQYTYRFLSIMCKVFL | 0.288 ± 0.65
139 | GKFLRGGHLVFRWATLYLSV | -0.604 ± 0.97
140 | ISMGWWIDYGPY | -0.724 ± 0.81
141 | RCYVDKSYNGDWASSAGQKH | 0.065 ± 0.44
142 | RQTLEKF | -0.168 ± 0.28
143 | KVALESSRAV | 0.036 ± 0.88
144 | GQIGACVPLIGVAMGYLS | -0.418 ± 1.5
145 | SFNNFEFILVIDYKRKSYMR | -0.222 ± 0.36
146 | VSMHWSISRCIC | 0.772 ± 0.43
147 | DTAFMNMMLWARNYCWFSVQ | inactive
148 | LVTFNDSQLSTWASLGLNS | -0.003 ± 0.46
149 | PHYRTSFVKHPLL | 0.73 ± 0.54
150 | PFGGDFTF | 0.187 ± 0.24

Row | Substance | amyloid nucleation score
151 | DNDSWYKYPCFWLCYFPACN | 5.17 ± 0.052
152 | HMISVDITLVSLWRRIL | -0.402 ± 0.81
153 | IHLGCCMLFRRLGECRLVV | -0.409 ± 0.29
154 | VCELHLILM | 0.425 ± 0.3
155 | YYISRVVVDGIRKYWGYLES | -0.866 ± 1.9
156 | QANAMNYKEKLFNFRYRGAM | -0.722 ± 0.53
157 | IHYIPAFYRAKSILLFVYAC | -0.241 ± 0.5
158 | VSKLICVFTGSYRNLEGYRI | 0.041 ± 0.39
159 | GKVFVVSVKCNEVVDFGWCQ | 0.073 ± 0.28
160 | CFPPSNCYLLYKLCVLLRIN | -0.134 ± 0.45
161 | DLQSSSDNLLGYMCFSCCKH | -0.463 ± 0.98
162 | YCGKR | 1.12 ± 0.58
163 | AQSALLKS | -1.22 ± 1.2
164 | YVWDAHIINVYLS | 6.51 ± 0.081
165 | FSQVSEEIIGVFLSISYCIL | 2.93 ± 0.074
166 | RCSFSGNYIIILLAVRTYFE | 1.1 ± 0.47
167 | DIGHFHGTDMGCNIF | inactive
168 | ESFGRTISVTELSHMT | 0.487 ± 0.39
169 | RRMKFDMSNGRQGSLVNHGR | 0.214 ± 0.53
